From US20240034813A1 (Janssen / Centocor, published 2024)

What was measured:
[1] = target: T1, recombinant human EGFR/ErbB1/HER1 with C-terminal His tag, Cy5-labeled (human, UniProt P00533 25-645, Cy5 label (reacted with Cy5 Mono NHS Ester; sites not stated)); experiment: competitive TR-FRET (Eu-amivantamab/Cy5-EGFR), EC50 ratio vs Reference Material; Ex. 2 Formulation 2 (50 mM histidine), T0, 5 C table
T1 construct: Commercial protein; also called Cy5-EGFR; Cy5-labeled EGFR antigen; not shown: C-terminal His tag
Excerpt: (§1) In this procedure, varying concentrations of unlabeled bispecific EGFR-cMet antibody sample compete with donor fluorophore (Europium (Eu) chelate) labeled bispecific EGFR-cMet antibody for binding to an acceptor fluorophore (Cy5)-labeled EGFR antigen. Excitation of the donor fluorophore results in a transfer of energy to the bound acceptor fluorophore (FRET process). The resultant FRET is detected by emission of light at 665 nm using a microplate reader capable of measuring time-resolved fluorescence. Sample dose response curves are compared to the RM.
(§2) EGFR Binding Materials and Methods. Certified commercial EGFR, a recombinant human EGFR/ErbB1/HER1 with C-terminal His tag is reacted with certified commercial Cy5 Mono NHS Ester to produce Cy5-labeled EGFR. Validated bispecific EGFR-cMet antibody is reacted with certified commercial Europium (Eu) chelate to produce Eu-labeled bispecific EGFR-cMet antibody. […] Fluorescence is then measured by spectrophotometry at 665 nm, plotted against antibody concentration and analyzed by a four-parameter logistic model. The antibody concentration required to obtain half of the maximum fluorescence response (EC50) is determined for RM, assay control and samples. The potencies of assay control and samples are calculated based on the ratio of the sample (or control) and RM EC50 values and reported as a percentage activity relative to the RM.

[2] = target: T1, recombinant human EGFR/ErbB1/HER1 with …; experiment: competitive TR-FRET (Eu-amivantamab/Cy5-EGFR), EC50 ratio vs Reference Material; Ex. 2 Formulation 1 (10 mM histidine), 3 months at 5 C
Excerpt: as §1, §2

[3] = target: T2, recombinant cMet/HGFR with c-terminal His-tag, Cy5-labeled (UniProt P08581 25-932, limits assumed, Cy5 label (reacted with Cy5 Mono NHS Ester; sites not stated)); experiment: competitive TR-FRET (Eu-amivantamab/Cy5-c-MET), EC50 ratio vs Reference Material; Ex. 2 Formulation 1 (10 mM histidine), T0, 5 C table
T2 construct: Commercial protein; also called Cy5-c-MET; Cy5-labeled c-MET antigen; not shown: C-terminal His-tag
Excerpt: as §1, with “(Cy5)-labeled c-MET” for “(Cy5)-labeled EGFR”, “the Reference Material (RM).” for “the RM.”
as §2, with “c-MET Binding” for “EGFR Binding”, “commercial cMet,” for “commercial EGFR,”, “recombinant cMet/HGFR” for “recombinant human EGFR/ErbB1/HER1”, “with c-terminal His-tag” for “with C-terminal His tag”, “Cy5-labeled c-MET.” for “Cy5-labeled EGFR.”, “produce Eu labeled” for “produce Eu-labeled”

[4] = target: T2, recombinant cMet/HGFR with c-terminal …; experiment: competitive TR-FRET (Eu-amivantamab/Cy5-c-MET), EC50 ratio vs Reference Material; Ex. 11 drug product, 0 months, 5 C table
Excerpt: as §1, with “(Cy5)-labeled c-MET” for “(Cy5)-labeled EGFR”, “the Reference Material (RM).” for “the RM.”
as §2, with “c-MET Binding” for “EGFR Binding”, “commercial cMet,” for “commercial EGFR,”, “recombinant cMet/HGFR” for “recombinant human EGFR/ErbB1/HER1”, “with c-terminal His-tag” for “with C-terminal His tag”, “Cy5-labeled c-MET.” for “Cy5-labeled EGFR.”, “produce Eu labeled” for “produce Eu-labeled”

[5] = target: T1, recombinant human EGFR/ErbB1/HER1 with …; experiment: competitive TR-FRET (Eu-amivantamab/Cy5-EGFR), EC50 ratio vs Reference Material; Ex. 11 drug product, 0 months, 25 C table
Excerpt: as §1, §2

[6] = target: T1, recombinant human EGFR/ErbB1/HER1 with …; experiment: competitive TR-FRET (Eu-amivantamab/Cy5-EGFR), EC50 ratio vs Reference Material; Ex. 11 drug product, 9 months at 5 C
Excerpt: as §1, §2

[7] = target: T2, recombinant cMet/HGFR with c-terminal …; experiment: competitive TR-FRET (Eu-amivantamab/Cy5-c-MET), EC50 ratio vs Reference Material; Ex. 11 drug product, 0 months, 40 C table
Excerpt: as §1, with “(Cy5)-labeled c-MET” for “(Cy5)-labeled EGFR”, “the Reference Material (RM).” for “the RM.”
as §2, with “c-MET Binding” for “EGFR Binding”, “commercial cMet,” for “commercial EGFR,”, “recombinant cMet/HGFR” for “recombinant human EGFR/ErbB1/HER1”, “with c-terminal His-tag” for “with C-terminal His tag”, “Cy5-labeled c-MET.” for “Cy5-labeled EGFR.”, “produce Eu labeled” for “produce Eu-labeled”

[8] = target: T1, recombinant human EGFR/ErbB1/HER1 with …; experiment: competitive TR-FRET (Eu-amivantamab/Cy5-EGFR), EC50 ratio vs Reference Material; Ex. 12 drug product with rHuPH20, 3 months at 5 C
Excerpt: as §1, §2

EGFR Binding % activity relative to RM [1]: 103%
EGFR Binding % activity relative to RM [2]: 102%
cMET Binding % activity relative to RM [3]: 87%
cMET Binding activity relative to Reference Material (%) [4]: 85%
EGFR Binding activity relative to Reference Material (%) [5]: 89%
EGFR Binding activity relative to Reference Material (%) [6]: 90%
cMET Binding activity relative to Reference Material (%) [7]: 85%
EGFR Binding activity relative to Reference Material (%) [8]: 82%
B1: amivantamab (bispecific antibody, human IgG1, kappa)
heavy 1: not shown
light 1: not shown
heavy 2: not shown
light 2: DIQMTQSPSSVSASVGDRVTITCRASQGISNWLAWFQHKPGKAPKLLIYAASSLLSGVPSRFSGSGSGTDFTLTISSLQPEDFATYYCQQANSFPITFGQGTRLEIKRTVAAPSVFIFPPSDEQLKSGTASVVCLLNNFYPREAKVQWKVDNALQSGNSQESVTEQDSKDSTYSLSSTLTLSKADYEKHKVYACEVTHQGLSSPVTKSFNRGEC
notes: The samples tested were high concentration (160 mg/mL) formulations, fresh or stored or stressed; also called JNJ-61186372; bispecific EGFR-cMet antibody
